Measured values taken from patent US20250289885A1 (TRUSTEES OF BOSTON UNIVERSITY, published 2025).

Target: T1, human Notch1-derived receptor overexpressed on CHO-K1 cells (human, UniProt P46531 19-1762, limits assumed)
T1 construct: Cells also express H2B-mTurq; also called Notch1 receptors
Assay: fluorescence microscopy of JFX650-labelled probody on CHO-K1 cells overexpressing a human Notch1-derived receptor
Protocol: FIGS. 36A and 36B present data showing Cleavage-Dependent Binding of a Brontictuzumab-Based Probody to Notch1 Receptors. A probody containing a brontictuzumab-based scFv was fused to a TEV cleavable linker and a soluble form of the human Notch1 NRR. Probodies containing either (FIG. 36A) the V1667D NRR mutant NRR, or (FIG. 36B) wild-type NRR were tested. The probodies also contained a HaloTag for labeling with a JFX650 dye. Binding of the probody to Notch1 receptors was tested using uncleaved and TEV protease-cleaved probody. The evaluated cells were based on CHO-K1 celle overexpressing a human Notch1-derived receptor; cells also expressed H2B-mTurq as a fluorescent marker (inset). Brontictuzumab is an antibody that binds the NRR from Notch1 (NRR1). Brontictuzumab (aka OMP-52M51) is originally from Oncomed Pharmaceuticals. This antibody is distinct from the Genentech anti-NRR1 used in our receptor and other Notch1 probody designs.

T1 sequence (P46531 19-1762 limits assumed): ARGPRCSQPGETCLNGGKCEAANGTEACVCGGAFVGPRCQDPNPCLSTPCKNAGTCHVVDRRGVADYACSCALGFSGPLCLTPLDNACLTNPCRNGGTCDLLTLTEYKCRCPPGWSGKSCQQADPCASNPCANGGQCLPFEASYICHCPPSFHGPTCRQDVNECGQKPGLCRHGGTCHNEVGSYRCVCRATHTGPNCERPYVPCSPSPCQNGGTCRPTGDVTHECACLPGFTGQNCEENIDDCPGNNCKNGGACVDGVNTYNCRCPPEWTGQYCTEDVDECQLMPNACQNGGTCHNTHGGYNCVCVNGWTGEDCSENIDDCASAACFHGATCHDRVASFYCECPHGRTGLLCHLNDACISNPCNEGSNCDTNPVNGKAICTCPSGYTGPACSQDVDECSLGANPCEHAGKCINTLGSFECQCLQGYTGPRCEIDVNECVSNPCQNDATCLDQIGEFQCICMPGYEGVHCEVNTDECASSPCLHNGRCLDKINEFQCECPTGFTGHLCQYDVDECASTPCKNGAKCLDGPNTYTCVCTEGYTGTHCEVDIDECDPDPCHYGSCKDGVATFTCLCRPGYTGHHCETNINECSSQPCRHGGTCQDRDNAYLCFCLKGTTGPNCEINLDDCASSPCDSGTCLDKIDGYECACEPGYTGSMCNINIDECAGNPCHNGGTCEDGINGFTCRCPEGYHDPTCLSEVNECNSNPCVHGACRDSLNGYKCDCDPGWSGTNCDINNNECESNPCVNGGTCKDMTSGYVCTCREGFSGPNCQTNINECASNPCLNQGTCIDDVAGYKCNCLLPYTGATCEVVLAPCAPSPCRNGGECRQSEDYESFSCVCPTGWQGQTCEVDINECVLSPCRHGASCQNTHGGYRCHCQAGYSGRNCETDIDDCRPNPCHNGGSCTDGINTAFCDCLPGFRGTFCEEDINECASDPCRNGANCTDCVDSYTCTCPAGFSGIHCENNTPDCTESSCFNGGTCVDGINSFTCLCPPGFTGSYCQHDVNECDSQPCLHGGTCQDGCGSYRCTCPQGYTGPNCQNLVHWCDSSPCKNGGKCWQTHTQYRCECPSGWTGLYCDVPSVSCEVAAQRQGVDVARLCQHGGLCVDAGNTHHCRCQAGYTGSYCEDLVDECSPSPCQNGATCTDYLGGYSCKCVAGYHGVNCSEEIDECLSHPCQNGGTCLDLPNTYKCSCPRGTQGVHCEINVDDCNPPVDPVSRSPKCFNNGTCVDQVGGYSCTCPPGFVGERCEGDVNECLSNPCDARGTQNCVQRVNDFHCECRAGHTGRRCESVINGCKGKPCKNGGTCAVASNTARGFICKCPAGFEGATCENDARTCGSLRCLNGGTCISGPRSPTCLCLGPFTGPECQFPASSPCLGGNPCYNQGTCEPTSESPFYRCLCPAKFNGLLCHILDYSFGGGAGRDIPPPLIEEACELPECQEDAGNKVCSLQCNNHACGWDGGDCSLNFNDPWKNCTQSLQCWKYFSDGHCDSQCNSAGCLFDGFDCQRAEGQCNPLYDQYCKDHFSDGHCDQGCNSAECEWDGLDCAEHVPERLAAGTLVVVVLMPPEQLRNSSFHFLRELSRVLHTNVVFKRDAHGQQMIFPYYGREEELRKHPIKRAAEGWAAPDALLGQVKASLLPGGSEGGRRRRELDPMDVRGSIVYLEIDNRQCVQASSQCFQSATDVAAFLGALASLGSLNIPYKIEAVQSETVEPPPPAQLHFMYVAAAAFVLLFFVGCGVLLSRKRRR

B1: TEV-cleavable Anti-Notch1 probody, with brontictuzumab scFv, Wild-type NRR (HaloTag-brontictuzumab-scFv-TEVcs-hNRR1^WT), intact (uncleaved) (other)
chain: YPYDVPDYATGMAEIGTGFPFDPHYVEVLGERMHYVDVGPRDGTPVLFLHGNPTSSYVWRNIIPHVAPTHRCIAPDLIGMGKSDKPDLGYFFDDHVRFMDAFIEALGLEEVVLVIHDWGSALGFHWAKRNPERVKGIAFMEFIRPIPTWDEWPEFARETFQAFRTTDVGRKLIIDQNVFIEGTLPMGVVRPLTEVEMDHYREPFLNPVDREPLWRFPNELPIAGEPANIVALVEEYMDWLHQSPVPKLLFWGTPGVLIPPAEAARLAKSLPNCKAVDIGPGLNLLQEDNPDLIGSEIARWLSTLEISGGGGGSTGDGGGGQVQLVQSGAEVKKPGASVKISCKVSGYTLRGYWIEWVRQAPGKGLEWIGQILPGTGRTNYNEKFKGRVTMTADTSTDTAYMELSSLRSEDTAVYYCARFDGNYGYYAMDYWGQGTTVTVSSGGSSRSSSSGGGGSGGGGQAVVTQEPSLTVSPGGTVTLTCRSSTGAVTTSNYANWFQQKPGQAPRTLIGGTNNRAPGVPARFSGSLLGGKAALTLSGAQPEDEAEYYCALWYSNHWVFGGGTKLTVLGSNSGGTLEGGGSGENLYFQGGGGGRTGGGSEQKLISEEDLGGGSILDYSFGGGAGRDIPPPLIEEACELPECQEDAGNKVCSLQCNNHACGWDGGDCSLNFNDPWKNCTQSLQCWKYFSDGHCDSQCNSAGCLFDGFDCQRAEGQCNPLYDQYCKDHFSDGHCDQGCNSAECEWDGLDCAEHVPERLAAGTLVVVVLMPPEQLRNSSFHFLRELSRVLHTNVVFKRDAHGQQMIFPYYGREEELRKHPIKRAAEGWAAPDALLGQVKASLLPGGSEGGRRRRELDPMDVRGSIVYLEIDNRQCVQASSQCFQSATDVAAFLGALASLGSLNIPYKIEAVQSETVEPGSLVPRGSSHHHHHHGPV
modifications: HaloTag labelled with JFX650 dye
notes: also called Brontictuzumab-based probody, wild-type NRR
- binding result: no binding
